The numbers were not newly measured in paper PMC4958339, which cites them from elsewhere.

The target of data set [1] is Lgl (UniProt P08111).
For data set [2], the target named is Pins/LGN (UniProt Q8VDU0).
Chain of UniProt Q8VDU0 (Q8VDU0 392-414): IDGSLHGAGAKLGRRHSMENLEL

Chain of UniProt P08111 (P08111 648-670): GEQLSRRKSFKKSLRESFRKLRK

As usually defined, the Kd is the concentration at which binding is half-saturated. For Dlg GUK (from UniProt Q12959), the Kd in data set [1] is 10.2 µM; in data set [2], 0.33 µM.
